Experimental data reported in the nanobody polyreactivity screen of Harvey et al. (2022).

test: yeast display, Sf9 membrane polyspecificity reagent, FACS + sequencing; frameworks hold sequencing errors
Procedure, shortened: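 In a synthetic yeast display library (Saccharomyces cerevisiae BJ5465), nanobody expression was induced with galactose for 36–48 hours. FACS gates were set low and high (top ~1%) using anti-HA fluorescence for expression and streptavidin fluorescence for binding of the Sf9 membrane reagent. Each polyreactivity label is drawn from the gate of origin.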

| Sequence | polyreactivity (PSR sort gate) |
| --- | --- |
| QVQLVESGGGLVQAGGSLRLSCAASGITFYIYAMGWYRQAPGKEREFVAAISDDGSTHYADSVKGRFTISRDNAKNTVYLQLNSLKPEDTAVYYCNADYYWFFDFFDYDYWGQGTQVTVSS | low polyreactivity |
| QVQLVESGGGLVQAGGSLRLSCAASGITFYIYAMGWYRQSPGKERELVATISWSDGRTYYADSVKGRFTISRDNAKNTVYLLMNSLKPEDTAVYYCAADWWYYQFDYEYWGQGTQVTVSS | low polyreactivity |
| QVQLVESGGGLVQAGGSLRLSCAASGITFYKNVMGWYRQAPGKERELVAAISSSGGSTYYADSVKGRFTISRDNAKNTVYLQMNSLKPEDTAVYYCAADDPLYTPYEFDYWGQGTQVTVSS | low polyreactivity |
| QVQLVESGGGLVQAGGSLRLSCAASGITFYKNVMGWYRQAPGKERELVAAISSSGGSTYYADSVKGRFTISRDNAKNTVYLQMNSLKPEDTAVYYCAADEDDVVSGFLRYFYVAYYYWGQGTQVTVSS | low polyreactivity |
| QVQLVESGGGLVQAGGSLRLSCAASGITFYKYTMGWYRQAPGKERELVAAISVRGGRTYYADSVKGRFTISRDNAKNTVYLQMNSLKPEDTAVYYCNRVPKDAYDYWGQGTQVTVSS | high polyreactivity |
| QVQLVESGGGLVQAGGSLRLSCAASGITFYKYTMGWYRQAPGKERELVAAISVRGGRTYYADSVKGRFTISRDYAKNTVDLQMNSLKPEDTAVYYCAAGSQPGRKYYYWGQGTQVTVSS | high polyreactivity |
| QVQLVESGGGLVQAGGSLRLSCAASGITFYLYAMGWYRQAPGKERELVAAISSSGGSTYYADSVKGRFTISRDNAKNTVYLQMNSLKPEDTAVYYCNASRRTVPYRYDYWGQGTQVTVSS | high polyreactivity |
| QVQLVESGGGLVQAGGSLRLSCAASGITFYPYVMGWYRQAPGKERELVAVITWSGGRTYYADSVKGRFTISRDNAKNTVYLQMNSLKPEDTAVYYCAADPLSGYDYWGQGTQVTVSS | low polyreactivity |
| QVQLVESGGGLVQAGGSLRLSCAASGITFYRNAMGWYRQAPGKERELVAAISWSGGRTYYADSVKGRFTISRDNAKNTVYLQMNSLKPEDTAVYYCNKYTHYYDYDYWGQGTQVTVSS | high polyreactivity |
| QVQLVESGGGLVQAGGSLRLSCAASGITFYRNAMGWYRQATGKERELVAAITSGTSTYYADSVKGRFTISRDNAKNTVYLQMNSLKPEDTAVYYCAKRTPPGYYGFDYWGQGTQVTVSS | low polyreactivity |
| QVQLVESGGGLVQAGGSLRLSCAASGITFYRYAMGWYRQAPGKEREFVAAITWGSTYYADSVKGRFTISRDNAKNTVYLQMNSLKPEDTAVYYCNKKGYTVGATVGYWGQGTQVTVSS | low polyreactivity |
| QVQLVESGGGLVQAGGSLRLSCAASGITFYRYVMGWYRQAPGKERELVAAITSRGGSTSYADSVKGRFTISRDNAKNTVYLQMNSLKPEDTAVYNCAADLSGWGRDARGAYDYWGQGPQVTVSS | high polyreactivity |
| QVQLVESGGGLVQAGGSLRLSCAASGITFYSYAMGSYRQAPGKERELVAAISWRGGSTRYADSVKGRFTISRDNAKNTVYLQMNSLKPEDTAVYYCAARLRTKLPIPSTVGYWGQGTQVTVSS | high polyreactivity |
| QVQLVESGGGLVQAGGSLRLSCAASGITFYSYAMGWYRQAPGKERELVAAINRSGGSTYYADSVKGRFTISRDNAKNTVYLQMNSLKPEDSAVYYCAAEEGRVFSGGYDYWGQGTQVTVSS | high polyreactivity |
| QVQLVESGGGLVQAGGSLRLSCAASGITFYTYAMGWYRQAPGKERELVAAITGTGTSTYYADSVKGRFTISRDNAKNTVYLQMNSLKPEDTAVYYCAAYKRGLPVKRDSWGQGTQVTVSS | high polyreactivity |
| QVQLVESGGGLVQAGGSLRLSCAASGITFYVYAMGWYRQAPGKERELVASITSGGGSTDYADSVKGRFTISRDNAKNTVYLQMNSLKPEDTAVYYCAARYPLLNQLYDFDYWGQGTQVTVSS | low polyreactivity |
| QVQLVESGGGLVQAGGSLRLSCAASGITFYWYAMGWYRQAPGKERELVARISSTGGSTYYADSVKGRFTISRDNAKNTVYLQMNSLKPEDTAVYYCNAVGRLYLYGSWGQGTQVTLSS | high polyreactivity |
| QVQLVESGGGLVQAGGSLRLSCAASGITFYYNTMGWYRQAPGKERELVAAISSRSGSTYYADSVKGRFTISRDKAKNNVSLQMNCLKPEDTAVYYCAARRAAKYYWGQGTQVTVSS | high polyreactivity |
| QVQLVESGGGLVQAGGSLRLSCAASGITFYYYAMGWYRQAPGKERELVAAISSGGRTYYADSVKGRFTISRDNAKNTVYLQMNSLKPEDTAVYYCAASFLVTSREYDYWGQGTQVTVSS | high polyreactivity |
| QVQLVESGGGLVQAGGSLRLSCAASGITGHNAMGWYRQAPGKERELVARISSGGRTNYADSVKGRFTISRDNAKNTVYLKMNSLKPEDTAVYYCAAGFRVGSFLRYNYWGQGTKVTVSS | high polyreactivity |
| QVQLVESGGGLVQAGGSLRLSCAASGITIAGYAMGWYRQAPGKERELVAAISSRGSSTRYADSVKGRFTISRDNAKNTVYLQMNSLKPEDSAVYYCAARNEYWGQGTQVTVSS | high polyreactivity |

| Sequence | polyreactivity (PSR sort gate) |
| --- | --- |
| QVQLVESGGGLVQAGGSLRLSCAASGITIGRYAMGWYRQAPGKERELVAAISSTGGRTYYADSVKGRFTISRDNAKNTVYLQMNSLKPEDTAVYYCAKKFAVFVSGYGYWGQGTQVTVSS | high polyreactivity |
| QVQLVESGGGLVQAGGSLRLSCAASGITIVYYAMGWYRQAPGKERELVAAITRGGNTYYADSVKGRFTISRDNAKNTVYLQMNSLKPEDTAVYYCAAVGYYYSALDMDYWGQGTQVTVSS | low polyreactivity |
| QVQLVESGGGLVQAGGSLRLSCAASGITIYKYAMGWYRQAPGKERELVAAITRGGSTNYADSVKGRFTISRDNAKNTVYLQMNSLKPEDTAVYYCNKVYHWQSPGFGYGYWGQGSQVTVSS | high polyreactivity |
| QVQLVESGGGLVQAGGSLRLSCAASGITIYYYAMGWYRQAPGTERELVAAISTTVGSTYYADSVKGRFTISRDNAKNTVYLQMNSLKPEDTAVYYCNAYRVYAWIEYNYWGQGTQVTVSS | low polyreactivity |
| QVQLVESGGGLVQAGGSLRLSCAASGITLFGYAMGWYRQAPGKERELVAAITSGGSTYYADSVKGRFTISRDNAKNTVYLQMNSLKPEDTAVYYCATSYVYYKYYSQEIYVYGFEYWGQGTQVTVSS | high polyreactivity |
| QVQLVESGGGLVQAGGSLRLSCAASGITLGTYVMGWYRQAPGKERELVAAISSGGSTYYADSVKGRFTISRDNAKNTVYLQMNSLKPEDTAVYYCAAQYYPYYDSRVSYDYWGQGTQVTVSS | low polyreactivity |
| QVQLVESGGGLVQAGGSLRLSCAASGITLGYYAMGWYRQAPGKERELVAAITWSGTSTYYADSVKGRFTISRDNAKNTVYLQMNSLKPEDTAVYYCAAGFISQYQERGYWGQGTQVTVSS | low polyreactivity |
| QVQLVESGGGLVQAGGSLRLSCAASGITLINYAMGWYRQAPGKERELVAAISTSGSSTYYADSVKGRFTISRDNAKNTVYLQMNSLKQEDTAVYYCNAEGQPLYVSWHDHRYIYGFDYWGQGTQVTVSS | low polyreactivity |
| QVQLVESGGGLVQAGGSLRLSCAASGITLNRNAMGWYRQAHGKERELVARISRRGGTTYYADSVKGRFTISRDNAKNTVYLQMNSLKPEDTAVYYCNAGPYGGNPFDYWGQGTQVTVSS | high polyreactivity |
| QVQLVESGGGLVQAGGSLRLSCAASGITLNRNAMGWYRQAPGKERELVSRISRRGGTTYYADSVKGRFTISRDNAKNTVYLLMNSLKPEDTAVYYCNAGPYGGNPFDYSGQGTQVTVSS | high polyreactivity |
| QVQLVESGGGLVQAGGSLRLSCAASGITLRRNAMGWYRQATGKERELVAAISWSGGRTYYADSVKGRFTISRDNAKNTVYLQMNSLKPEDTAVYYCAARGYPLTAIDYWGQGTQVTVSS | high polyreactivity |
| QVQLVESGGGLVQAGGSLRLSCAASGITLSTYAMGWYRPAPGKERELVATITGNGDRTYYADSVKGRFTISRDNAKNTVYLQMNSLKPEDTAVYYCAKDSPGDGIGYGYWGQGTQVTVSS | low polyreactivity |
| QVQLVESGGGLVQAGGSLRLSCAASGITLSYNVMGWYRQEPGKEREFVAAITGGRTYYADSVKGRFTISRDNAKNTVYLQMNSLKPEDTAVYYCAADAPGHEYYYWGQGTQVTVSS | high polyreactivity |
| QVQLVESGGGLVQAGGSLRLSCAASGITLSYYAMGWYGPAPGKERELVAAISSNGGRTYYADSVMGRFTISRDNAKNTVYLQMNSLKPEDTAVYYCAARVYDYPRFGYWGQGTQVTVSS | high polyreactivity |
| QVQLVESGGGLVQAGGSLRLSCAASGITLYDNAMGWYRQAPGKERELVAAINVNDVSTYYADSVKGRFTISRDNAKNTVYLQKNSLKPEDTAVYYCAADSLYYGIGYWVVRYDYWGQGTQVTVSS | low polyreactivity |
| QVQLVESGGGLVQAGGSLRLSCAASGITLYINAMGWYRQAPGKERELVAAITRIGGRTYYADSVKGRFTISRDNAKNTVYLQMNSLKPEDTAVYYCNARTYNAFNYWGQGTQVTVSS | high polyreactivity |
| QVQLVESGGGLVQAGGSLRLSCAASGITLYKYAMGWYRQAPGKERELVASISRSGGSTYYADSVKGRFTISRDNAKNTVYLQMNSLKPEDTAVYYCNARAKSYRFGYWGQGTQVTVSS | high polyreactivity |
| QVQLVESGGGLVQAGGSLRLSCAASGITLYLNAMGWYRQAPGKERELVAAITASGGSTYADSVKGRFTISRDNAQNTVYLQMNSLKPEDTAVYYCAADVIYEYYFTFGVGYYEYDYWGQGTQVTVSS | low polyreactivity |
| QVQLVESGGGLVQAGGSLRLSCAASGITLYRYVMGWYRQAPGKERELVADISGRGTSTYYADSVKGRFTISRDNAKNTVYLQMNSLKPEETAVYYCNAEYTKTGALVIPYTYYYAEDYWGQGTQVTVSS | low polyreactivity |
| QVQLVESGGGLVQAGGSLRLSCAASGITLYYNAMGWYRQAPGKESELVAAITWSGSRTYYADSVKGRFTISRDNAKNTVYLQMNSLKPEDTAVSYCAADVDFWNTVEDMDYWGQGNQVTVSS | low polyreactivity |
